Assays:
[1] = tested on: C=O; experiment: purified protein; conditions: pH 7, 45°C, 1 mM PES, 100 μM DCPIP, 200 nM enzyme, no ammonium, first 2 min, formaldehyde from dissolved paraformaldehyde
[2] = tested on: CO; experiment: purified protein; conditions: pH 7, 45°C, 1 mM PES, 100 μM DCPIP, 200 nM enzyme, no ammonium, first 2 min

Question: How did the Km [1] turn out when “Nd-XoxF1 (XoxF1-type methanol dehydrogenase) (Methylacidimicrobium sp. AP8)” was run?
Answer: 1.6 ± 0.8 µM

Question: And the Km [2]?
Answer: 1.4 ± 0.6 µM
